Laboratory results: patent US20160362476

Biological target: T1, phiC31 integrase (Streptomyces phage phiC31) (UniProt Q9T221)
T1 sequence: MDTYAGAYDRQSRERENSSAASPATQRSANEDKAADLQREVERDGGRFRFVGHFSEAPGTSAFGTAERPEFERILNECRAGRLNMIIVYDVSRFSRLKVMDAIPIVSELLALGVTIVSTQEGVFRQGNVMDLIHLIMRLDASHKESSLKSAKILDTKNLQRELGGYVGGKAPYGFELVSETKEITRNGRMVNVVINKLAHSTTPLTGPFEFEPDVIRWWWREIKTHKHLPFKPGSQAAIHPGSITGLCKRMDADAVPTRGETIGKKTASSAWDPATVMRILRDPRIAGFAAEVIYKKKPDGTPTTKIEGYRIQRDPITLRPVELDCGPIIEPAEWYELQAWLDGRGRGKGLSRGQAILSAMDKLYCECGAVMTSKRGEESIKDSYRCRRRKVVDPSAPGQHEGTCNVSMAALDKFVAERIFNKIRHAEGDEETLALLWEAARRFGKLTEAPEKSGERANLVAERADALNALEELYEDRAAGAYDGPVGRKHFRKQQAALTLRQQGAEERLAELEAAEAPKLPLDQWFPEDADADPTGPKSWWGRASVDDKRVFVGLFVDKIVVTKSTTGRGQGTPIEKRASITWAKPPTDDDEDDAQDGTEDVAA
Assay: cell_activity

Substance: GGTGCCAGGGCGTGCCCTTGGGCTCCCCGGGCGCGTACTGAANTATACAAA (double strand) [phiC31 attB (36 bp, in pAcceptor 5' of promoterless camR)]
- activity (recombination partner of attP in E. coli TG1, camR selection): > 90%

Substance: phiC31 attP (36 bp, used as scFv linker in pDonor)
- activity (co-integration of pDonor attP with pAcceptor attB in E. coli TG1, camR/ampR ratio versus already co-integrated plasmid): > 90%
